Residue numbers refer to the chain shown, from its start. Names and notes keep the numbering of the source.
T1: TTD (residues 134–285) of UHRF1 (Homo sapiens, UniProt Q96T88)
T1 construct: TTD (residues 134–285); GST (N, cleaved yes); made in house; host or cells: E. coli BL21 (DE3)
T1 sequence (Q96T88 134-285): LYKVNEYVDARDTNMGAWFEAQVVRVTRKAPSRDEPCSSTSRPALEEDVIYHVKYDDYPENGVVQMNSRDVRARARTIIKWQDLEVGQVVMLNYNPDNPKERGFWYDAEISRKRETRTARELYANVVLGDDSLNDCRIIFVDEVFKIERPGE

T2: Spacer (residues 587–674) of UHRF1 (Homo sapiens, UniProt Q96T88)
T2 construct: Spacer (residues 587–674); GST (N, cleaved yes); made in house; host or cells: E. coli BL21 (DE3)
T2 sequence (Q96T88 587-674): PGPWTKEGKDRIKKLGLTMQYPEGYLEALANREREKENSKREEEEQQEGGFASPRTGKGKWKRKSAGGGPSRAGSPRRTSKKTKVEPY

B1: SRA-Spacer-661: UHRF1 residues 414–661 (protein, UniProt Q96T88 414-661, looked up, fragment)
chain: PSNHYGPIPGIPVGTMWRFRVQVSESGVHRPHVAGIHGRSNDGAYSLVLAGGYEDDVDHGNFFTYTGSGGRDLSGNKRTAEQSCDQKLTNTNRALALNCFAPINDQEGAEAKDWRSGKPVRVVRNVKGGKNSKYAPAEGNRYDGIYKVVKYWPEKGKSGFLVWRYLLRRDDDEPGPWTKEGKDRIKKLGLTMQYPEGYLEALANREREKENSKREEEEQQEGGFASPRTGKGKWKRKSAGGGPSRAGS
B2: Spacer ∆642-651: internal deletion of the Spacer, residues 642–651 (protein)
chain: PGPWTKEGKDRIKKLGLTMQYPEGYLEALANREREKENSKREEEEQQEGGFASPRAGGGPSRAGSPRRTSKKTKVEPY
modifications: left off: GST, end not stated, cleaved
B3: Spacer∆650-654: internal deletion of the Spacer, residues 650–654 (protein)
chain: PGPWTKEGKDRIKKLGLTMQYPEGYLEALANREREKENSKREEEEQQEGGFASPRTGKGKWKRGPSRAGSPRRTSKKTKVEPY
modifications: left off: GST, end not stated, cleaved
B4: Spacer∆660-664: internal deletion of the Spacer, residues 660–664 (protein)
chain: B3 chain with G64K, P65S, S66A, R67G, A68G, S70P, P71S, R73A
modifications: left off: GST, end not stated, cleaved
B5: Spacer∆655-659: internal deletion of the Spacer, residues 655–659 (protein)
chain: B3 chain with G64K, P65S, S66A, R67G, A68G
modifications: left off: GST, end not stated, cleaved
B6: SpacerK648D: mutation K648D of the Spacer (protein)
chain: T2 sequence (Q96T88 587-674) with K62D
modifications: left off: GST, end not stated, cleaved
notes: mutation K648D of the Spacer
B7: SpacerS666D: mutation S666D of the Spacer, negative control (protein)
chain: T2 sequence (Q96T88 587-674) with S80D
modifications: left off: GST, end not stated, cleaved
notes: mutation S666D of the Spacer, negative control
B8: SpacerS651D: mutation S651D of the Spacer (protein)
chain: T2 sequence (Q96T88 587-674) with S65D
modifications: left off: GST, end not stated, cleaved
notes: mutation S651D of the Spacer
B9: SpacerR649A: mutation R649A of the Spacer (protein)
chain: T2 sequence (Q96T88 587-674) with R63A
modifications: left off: GST, end not stated, cleaved
notes: mutation R649A of the Spacer
B10: SpacerS639D: mutation S639D of the Spacer, negative control (protein)
chain: T2 sequence (Q96T88 587-674) with S53D
modifications: left off: GST, end not stated, cleaved
notes: mutation S639D of the Spacer, negative control
B11: Spacer∆665-669: internal deletion of the Spacer, residues 665–669 (protein)
chain: PGPWTKEGKDRIKKLGLTMQYPEGYLEALANREREKENSKREEEEQQEGGFASPRTGKGKWKRKSAGGGPSRAGSPRRKVEPY
modifications: left off: GST, end not stated, cleaved
B12: Spacer∆670-674: deletion of the Spacer, residues 670–674 (protein)
chain: B11 chain with K79T, V80S, E81K, P82K, Y83T
modifications: left off: GST, end not stated, cleaved
B13: TTD: tandem Tudor domain of human UHRF1 (residues 134–285) (protein, UniProt Q96T88 134-285, looked up, fragment)
chain: T1 sequence (Q96T88 134-285)
modifications: tandem Tudor domain
B14: TTD-PHDRR295,296DD: mutation R295D/R296D (within the Linker) of TTD–PHD (protein)
chain: LYKVNEYVDARDTNMGAWFEAQVVRVTRKAPSRDEPCSSTSRPALEEDVIYHVKYDDYPENGVVQMNSRDVRARARTIIKWQDLEVGQVVMLNYNPDNPKERGFWYDAEISRKRETRTARELYANVVLGDDSLNDCRIIFVDEVFKIERPGEGSPMVDNPMDDKSGPSCKHCKDDVNRLCRVCACHLCGGRQDPDKQLMCDECDMAFHIYCLDPPLSSVPSEDEWYCPECRND
modifications: left off: GST, end not stated, cleaved
notes: mutation R295D/R296D (within the Linker) of TTD–PHD
B15: TTDD142A,E153A: mutation D142A/E153A of the TTD (protein)
chain: T1 sequence (Q96T88 134-285) with D9A, E20A
modifications: left off: GST, end not stated, cleaved
notes: mutation D142A/E153A of the TTD

target: FAM-12bp-HM-DNA; assay: Fluorescence polarization, 12-bp FAM-hm-DNA; assay type: binding; settings: FP, 25 °C, 20 min; 20 mM HEPES pH 7.5, 175 mM NaCl, 8% glycerol, 1 mM DTT; triplicate; Fig. 5b and Supplementary Table 4
Experimental: A 6-carboxy-fluorescein (FAM)-labelled primer, 5′-CCATGCGCTGAC-3′, was annealed to a primer 5′-GTCAGXGCATGG-3′ (X=5-methyldeoxycytosine). The hemi-methylated double-strand DNA was used in both electrophoretic mobility-shift assay and FP assays. […] The samples were subjected to a 10% polyacrylamide gel electrophoresis and run in 0.5 × Tris-borate-EDTA buffer at 100 V for 1 h at 4 °C. The results were visualized on Tanon-5200 Chemiluminescent Imaging System (Tanon Science & Technology Co., Ltd).
FP measurements were performed at 25 °C on Synergy 4 Microplate Reader (BioTek). The 16-bp and 20-bp FAM-labelled hm-DNA (lower strand: 5′-GTGTCAGXGCATGGCC-3′ and 5′-CCGTGTCAGXGCATGGCCAT-3′, respectively. X=5-methyldeoxycytosine) were used in the FP experiment to test the effect of DNA length on the protein/DNA interaction. All experiments were performed in triplicate. The curves were fitted by GraphPad Prism 5. For salt concentration-dependent FP experiments, the reaction buffer contains 50 mM or 150 mM NaCl, respectively.

Molecule	Kd
B1	0.38 ± 0.06 µM

target: T1, TTD (residues 134–285) of UHRF1; assay: ITC, TTD titrated into Spacer variants and other UHRF1 fragments; assay type: binding; settings: ITC stoichiometry, TTD in syringe
Experimental: (§1) For competition ITC experiments: the indicated proteins were pre-incubated with competitive peptide, protein or hm-DNA (at 1:2 molar ratio if not specified) for 10 min followed by ITC measurements as described above. Proteins, DNA and peptides were prepared within ITC buffer containing 10 mM HEPES, pH 8.0, 100 mM NaCl. The data were fitted by software Origin 7.0. All ITC results were summarized in Supplementary Table 2 and raw data were shown in Supplementary Fig. 9.

Molecule	N
B2	0.891±0.0733
B3	0.967±0.0122
B4	1.01±0.00976
B5	0.988±0.0147
B6	0.659±0.0209
B7	1.08±0.0104
B8	0.998±0.0189
B9	1.06±0.0256
B10	1.03±0.0102
B11	1.06±0.00978
B12	1.1±0.0102

same assay, conditions: ITC, TTD in syringe

Molecule	ΔH	ΔS
B2	-16.04 ± 1.782 kJ/mol	9.58 cal/mol/deg
B3	-27.09 ± 0.4481 kJ/mol	2.57 cal/mol/deg
B4		-10.2 cal/mol/deg
B5	-31.94 ± 0.6531 kJ/mol	-0.906 cal/mol/deg
B6	-35.35 ± 1.531 kJ/mol	-5.07 cal/mol/deg
B7	-1.219E4±159.8 cal/mol	-14.9 cal/mol/deg
B8		-19.3 cal/mol/deg
B9	-34.63 ± 1.473 kJ/mol	-7.04 cal/mol/deg
B10	-1.125E4±153.8 cal/mol	-11.4 cal/mol/deg
B11		-12.9 cal/mol/deg
B12		-9.46 cal/mol/deg

target: T2, Spacer (residues 587–674) of UHRF1; assay: ITC, interaction of UHRF1 domains with the Spacer; assay type: binding; settings: ITC stoichiometry, Spacer in syringe
Experimental: as §1

Molecule	N
B13	0.991±0.0134
B14	0.944±0.0158

same assay, conditions: ITC, 18 °C; Spacer in syringe, named protein in cell; 10 mM HEPES pH 8.0, 100 mM NaCl

Molecule	Kd
B13	1.48 µM
B14	2.69 µM

same assay, conditions: ITC, Fig. 3e; wild-type or mutant TTD in syringe, Spacer in cell

Molecule	Kd	KD
B13	1.59 µM	
B15		abolished

same assay, conditions: ITC, Spacer in syringe

Molecule	ΔH	ΔS
B13	-1.614E4±297.4 cal/mol	-28.7 cal/mol/deg
B14	-1.399E4±290.7 cal/mol	-22.5 cal/mol/deg

same assay, conditions: ITC, molar ratio of TTD-PHD or TTD: H3K9me3=1:2

Molecule	interaction between the Spacer and the named protein in the presence of H3K9me3
B13	No detectable interaction
